Test results as given in patent US20240376151A1, “STAPLED PEPTIDES AND METHODS THEREOF” (FOG PHARMACEUTICALS, INC., priority 2022, published 2024).

Biological target: T1, RNF31 PUB domain (Homo sapiens, UniProt Q96EP0)
T1 construct: MBP-TEV (N, cleaved yes); made in house; host or cells: E. coli BL21 (DE3) pLysS
T1 sequence (Q96EP0 1-179): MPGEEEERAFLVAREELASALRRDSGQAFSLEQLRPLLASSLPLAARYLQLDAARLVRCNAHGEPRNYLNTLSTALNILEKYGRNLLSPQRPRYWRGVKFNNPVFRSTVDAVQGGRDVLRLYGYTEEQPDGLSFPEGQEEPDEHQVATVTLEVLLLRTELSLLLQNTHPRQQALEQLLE
Test: Phage Library Screening with NGS, RNF31 PUB domain
Assay type: binding
Conditions: for Phage library screen NGS readout, Target Concentration 10 / Phage library screen NGS readout, Target Concentration 30 / Phage library screen NGS readout, Target Concentration 100 / Phage library screen NGS readout, Target Concentration 300 / Phage library screen NGS readout, Target Concentration 1000: RNF31 PUB domain clusters C41-C45; for Phage library screen NGS readout, BLANK: clusters C41-C45

[1] = target concentration 1000, first column
[2] = target concentration 1000, second column

Phage library screen NGS readout, Target Concentration 10	Phage library screen NGS readout, Target Concentration 30	Phage library screen NGS readout, Target Concentration 100	Phage library screen NGS readout, Target Concentration 300	Phage library screen NGS readout, Target Concentration 1000 [1]	Phage library screen NGS readout, Target Concentration 1000 [2]	Phage library screen NGS readout, BLANK (column 1 of 5)	Phage library screen NGS readout, BLANK (column 2 of 5)	Phage library screen NGS readout, BLANK (column 3 of 5)	Phage library screen NGS readout, BLANK (column 4 of 5)	Phage library screen NGS readout, BLANK (column 5 of 5)	Sequence
0	1	0	5	7	5	1	2	1	1	1	DPAWWNCLYAANTCVED
1	0	0	3	9	5	0	0	0	2	0	DPAWWNCLYAAYECNHA
1	10	0	7	14	15	0	2	2	1	1	DPAWWSCMYAAWTCDDT
0	2	2	19	62	71	1	2	1	0	0	DPAYDLCLNAAVACTYV
0	0	0	1	7	4	0	0	1	0	0	DPAYDWCLYAAEYCHTD
0	0	0	6	13	40	0	0	0	0	0	DPAYDWCLYAAYQCDQN
0	0	0	3	3	8	0	0	0	1	0	DPAYDWCMYAAHECVDQ
2	1	1	6	41	38	0	0	0	0	0	DPAYDWCMYAAYNCVED
0	0	0	1	6	5	0	0	0	0	0	DPAYDYCLYAAQDCVWW
0	0	1	5	48	38	1	0	0	1	0	DPAYDYCLYAAYDCTQT
0	0	0	0	11	10	1	0	0	0	0	DPAYEDCADAAMYCDMD
0	0	0	10	70	64	0	0	0	0	0	DPAYEDCAWAALYCDMT
0	0	1	2	12	12	0	3	0	0	1	DPAYRDCDWAALYCDDF
0	1	0	2	6	7	0	0	0	0	0	DPAYSLCISAAVECTYY
